# Experimental data reported in PMC2613655 (Journal of molecular biology, 2008).
# B1: Ydj1 (natural protein, yeast, UniProt P25491 1-409, looked up)
# chain: MVKETKFYDILGVPVTATDVEIKKAYRKCALKYHPDKNPSEEAAEKFKEASAAYEILSDPEKRDIYDQFGEDGLSGAGGAGGFPGGGFGFGDDIFSQFFGAGGAQRPRGPQRGKDIKHEISASLEELYKGRTAKLALNKQILCKECEGRGGKKGAVKKCTSCNGQGIKFVTRQMGPMIQRFQTECDVCHGTGDIIDPKDRCKSCNGKKVENERKILEVHVEPGMKDGQRIVFKGEADQAPDVIPGDVVFIVSERPHKSFKRDGDDLVYEAEIDLLTAIAGGEFALEHVSGDWLKVGIVPGEVIAPGMRKVIEGKGMPIPKYGGYGNLIIKFTIKFPENHFTSEENLKKLEEILPPRIVPAIPKKATVDECVLADFDPAKYNRTRASRGGANYDSDEEEQGGEGVQCASQ
# B2: YSY (other, yeast, UniProt P25491 1-105, looked up)
# chain: MVKETKFYDILGVPVTATDVEIKKAYRKCALKYHPDKNPSEEAAEKFKEASAAYEILSDPEKRDIYDQFGEDGLSGAGGAGGFPGGGFGFGDDIFSQFFGAGGAQNEDAFNIFSQFFGGSSPFGGADDSGFSFSSYPSGGGAGMGGMPGGMGGMHGGMGGMPGGFRSASSSPTYPEEETVQVNLPVSLEDLFVGKKKSFKIGRKGPHGASEKTQIDIQLKPGWKAGTKITYKNQGDYNPQTGRRKTLQFVIQEKSHKSFKRDGDDLVYEAEIDLLTAIAGGEFALEHVSGDWLKVGIVPGEVIAPGMRKVIEGKGMPIPKYGGYGNLIIKFTIKFPENHFTSEENLKKLEEILPPRIVPAIPKKATVDECVLADFDPAKYNRTRASRGGANYDSDEEEQGGEGVQCASQ
# B3: SYS (other, yeast, UniProt P25294 1-121, looked up)
# chain: MVKETKLYDLLGVSPSANEQELKKGYRKAALKYHPDKPTGDTEKFKEISEAFEILNDPQKREIYDQYGLEAARSGGPSFGPGGPGGAGGAGGFPGGAGGFSGGHAFSNEDAFNIFSQFFGGAGGAQRPRGPQRGKDIKHEISASLEELYKGRTAKLALNKQILCKECEGRGGKKGAVKKCTSCNGQGIKFVTRQMGPMIQRFQTECDVCHGTGDIIDPKDRCKSCNGKKVENERKILEVHVEPGMKDGQRIVFKGEADQAPDVIPGDVVFIVSERPHPNFKRDGDDLIYTLPLSFKESLLGFSKTIQTIDGRTLPLSRVQPVQPSQTSTYPGQGMPTPKNPSQRGNLIVKYKVDYPISLNDAQKRAIDENF
# B4: Sis1 (natural protein, yeast, UniProt P25294 1-352, looked up)
# chain: MVKETKLYDLLGVSPSANEQELKKGYRKAALKYHPDKPTGDTEKFKEISEAFEILNDPQKREIYDQYGLEAARSGGPSFGPGGPGGAGGAGGFPGGAGGFSGGHAFSNEDAFNIFSQFFGGSSPFGGADDSGFSFSSYPSGGGAGMGGMPGGMGGMHGGMGGMPGGFRSASSSPTYPEEETVQVNLPVSLEDLFVGKKKSFKIGRKGPHGASEKTQIDIQLKPGWKAGTKITYKNQGDYNPQTGRRKTLQFVIQEKSHPNFKRDGDDLIYTLPLSFKESLLGFSKTIQTIDGRTLPLSRVQPVQPSQTSTYPGQGMPTPKNPSQRGNLIVKYKVDYPISLNDAQKRAIDENF
# Target: the molecule itself
# Test: SAXS
row,Protein,stoichiometry N
1,B1,2
2,B2,2
3,B3,2
4,B4,2
